The values below are quoted from earlier work in patent publication US20190345209.

The series has as its system BCR-ABL1 zinc finger protein (three-finger ZFP) (synthetic construct). The settings on record: CITED (ref 50); p122 prints 78 uM, evidently a typo.

As for “GCAGAAGCC (double strand) [BCR-ABL1 9 bp binding site (in Go92, Go66, Go85 promoters)]”, the Kd – broadly, the constant that tells how readily two partners part at equilibrium – was 0.078 nM.
